Literature values as cited in PMC8277102.

Target: EmrA (Escherichia coli) (UniProt P27303)
Experiment: SPR

Kd: 1870 nM
Substance: EmrA (from UniProt P27303)
